Experimental data: publication PMC3467072

Molecular target: T1, Rv3066 (TetR-family regulator) (Mycobacterium tuberculosis H37Rv, UniProt I6X658 1-202)
T1 sequence: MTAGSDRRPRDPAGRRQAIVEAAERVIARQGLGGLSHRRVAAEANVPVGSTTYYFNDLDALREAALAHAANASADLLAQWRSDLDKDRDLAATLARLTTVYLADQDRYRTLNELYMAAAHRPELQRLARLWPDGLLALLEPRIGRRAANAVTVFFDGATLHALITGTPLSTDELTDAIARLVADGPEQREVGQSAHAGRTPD
Assay: fluorescence polarization

B1: 30-bp IR1 dsDNA, fluorescein (dsDNA)
DNA 1: CGAGCCTCCTTTGTGTACATTTGTACATGT
DNA 2: ACATGTACAAATGTACACAAAGGAGGCTCG
Kd: 4.4 ± 0.3 nM
